Measurements taken from patent publication US20150344570A1 (published 2015).
Changes are numbered by the printed parent chain. Names and notes keep the numbering of the source.

T1: FcgRIIaR (human, UniProt P12318 34-217)
T1 construct: extracellular domain; Allotype R131; also called FcγRIIa R; FcgRIIa type R; not shown: His tag attached to the C terminus
T1 sequence (looked up): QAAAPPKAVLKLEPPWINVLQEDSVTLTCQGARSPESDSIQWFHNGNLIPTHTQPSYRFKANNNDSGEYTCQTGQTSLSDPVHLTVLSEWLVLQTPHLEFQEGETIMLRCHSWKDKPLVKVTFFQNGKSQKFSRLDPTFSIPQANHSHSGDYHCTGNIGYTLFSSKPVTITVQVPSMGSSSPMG

T2: FcgRIIb (human, UniProt P31994 43-217)
T2 construct: extracellular domain; also called FcγRIIb; CD32B; not shown: His tag attached to the C terminus
T2 sequence (looked up): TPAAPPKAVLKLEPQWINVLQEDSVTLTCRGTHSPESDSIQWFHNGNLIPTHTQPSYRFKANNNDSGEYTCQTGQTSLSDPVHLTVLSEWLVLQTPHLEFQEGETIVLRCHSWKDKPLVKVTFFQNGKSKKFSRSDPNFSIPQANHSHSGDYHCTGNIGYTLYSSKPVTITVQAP

T3: FcgRIIaH (human, UniProt P12318 34-217)
T3 construct: extracellular domain; Allotype H131; also called FcγRIIa H; FcgRIIa type H; not shown: His tag attached to the C terminus
T3 sequence (looked up): T1 sequence (looked up) with R134H

T4: FcgRIIaR (human, UniProt P12318 34-217)
T4 construct: extracellular domain; also called FcγRIIa R; FcγRIIa type R; not shown: His tag at the C terminus
T4 sequence (looked up): T1 sequence (looked up)

T5: FcgRIIb (human, UniProt P31994 43-217)
T5 construct: extracellular domain; also called FcγRIIb; 2b; not shown: His tag at the C terminus
T5 sequence (looked up): T2 sequence (looked up)

T6: FcgRIIaH (human, UniProt P12318 34-217)
T6 construct: extracellular domain; also called FcγRIIa H; FcγRIIa type H; not shown: His tag at the C terminus
T6 sequence (looked up): T1 sequence (looked up) with R134H

B1: H240-Kn149/H240-Hl068/L73-k0 (antibody, human IgG1, kappa)
heavy 1: QDQLVQSGAEVKKPGASVKVSCKASGFNIKDTYIQWVRQAPGQGLEWMGRIDPLRKQTKYREKFEGRVTITADTSTNTAYMELSSLRSEDTAVYYCVRSGREFDYWGQGTLVTVSSASTKGPSVFPLAPSSKSTSGGTAALGCLVKDYFPEPVTVSWNSGALTSGVHTFPAVLQSSGLYSLSSVVTVPSSSLGTQTYICNVNHKPSNTKVDKKVEPKSCDKTHTCPPCPAPEYYWGPMVFLFPPKPKDTLMISRTPEVTCVVVDVSDEDPEVKFNWYVDGVEVHNAKTKPREEQYNATYRVVSVLTVLHQDWLNGKEYKCKVSNKDWPAPIELTISKAKGQPREPQVCTLPPSRDELTKNQVSLWCLVKGFYPSDIAVEWESNGQPENNYKTTPPVLDSDGSFFLYSKLTVDKSRWQQGNVFSCSVMHEALHNHYTQKSLSLSP
heavy 2: QDQLVQSGAEVKKPGASVKVSCKASGFNIKDTYIQWVRQAPGQGLEWMGRIDPLRKQTKYREKFEGRVTITADTSTNTAYMELSSLRSEDTAVYYCVRSGREFDYWGQGTLVTVSSASTKGPSVFPLAPSSKSTSGGTAALGCLVKDYFPEPVTVSWNSGALTSGVHTFPAVLQSSGLYSLSSVVTVPSSSLGTQTYICNVNHKPSNTKVDKKVEPKSCDKTHTCPPCPAPELLGGPSVFLFPPKPKDTLMISRTPEVTCVVVDVSHEEPEVKFNWYVDGVEVHNAKTKPREEQYNSTYRVVSVLTVLHQDWLNGKEYKCKVSNDALPKPIEETISKAKGQPREPQVYTLPPSRCELTKNQVSLSCAVKGFYPSDIAVEWESNGQPENNYKTTPPVLDSDGSFFLVSKLTVDKSRWQQGNVFSCSVMHEALHNHYTQKSLSLSP
light: DIQMTQSPSSLSASVGDRVTITCRASQDIHKYIAWYQQKPGQAPRLLIQYTSTLQPGVPSRFSGSGSGTDYTFTISSLQPEDIATYYCLQYEQLRTFGGGTKVEIKRTVAAPSVFIFPPSDEQLKSGTASVVCLLNNFYPREAKVQWKVDNALQSGNSQESVTEQDSKDSTYSLSSTLTLSKADYEKHKVYACEVTHQGLSSPVTKSFNRGEC
notes: Heterodimerized anti-epiregulin IgG1 antibody; L328W and K334L in H240-Kn120
B2: H240-afucosyl_G1d/L73-k0 (antibody, human IgG1, kappa)
heavy: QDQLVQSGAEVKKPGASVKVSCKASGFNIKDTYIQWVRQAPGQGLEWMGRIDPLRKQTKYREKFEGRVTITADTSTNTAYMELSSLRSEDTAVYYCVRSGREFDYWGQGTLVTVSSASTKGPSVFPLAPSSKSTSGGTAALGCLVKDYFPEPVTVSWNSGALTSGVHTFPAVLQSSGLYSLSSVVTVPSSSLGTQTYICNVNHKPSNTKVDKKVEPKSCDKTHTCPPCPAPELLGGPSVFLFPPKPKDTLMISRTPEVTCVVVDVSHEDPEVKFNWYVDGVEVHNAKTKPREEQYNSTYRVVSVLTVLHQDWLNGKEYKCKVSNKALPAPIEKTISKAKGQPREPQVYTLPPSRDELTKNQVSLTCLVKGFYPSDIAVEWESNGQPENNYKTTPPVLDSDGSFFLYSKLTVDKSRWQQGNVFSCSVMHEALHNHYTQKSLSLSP
light: B1 light
modifications: fucose removed from the N-linked sugar chain (afucosylated)
notes: also called afucosylated antibody
B3: H240-Kn033/H240-Hl033/L73-k0 (antibody, human IgG1, kappa)
heavy 1: not shown
heavy 2: not shown
light: B1 light
notes: Anti-epiregulin IgG1 with knobs-into-holes alterations only
B4: H240-Kn037/H240-Hl036/L73-k0 (antibody, human IgG1, kappa)
heavy 1: B1 heavy 1 with Y233L, Y234L, W235A, M238D, D267H, A297S, D326A, W327L, I331E, L333K
heavy 2: B1 heavy 2 with G235A, S238D, E269D, D325K, K329A, I331E, E333K
light: B1 light
notes: It says both H chains have G236A/S239D/I332E
B5: H240-Kn205/H240-Hl212/L73-k0 (antibody, human IgG1, kappa)
heavy 1: B1 heavy 1 with Y234L, W235G, M238S, D267H, Y295W, A297C, D326A, W327L, L333K
heavy 2: B1 heavy 2 with S238D, E269D, D325K, K329A, E333V
light: B1 light
B6: H240-Kn204/H240-Hl211/L73-k0 (antibody, human IgG1, kappa)
heavy 1: B1 heavy 1 with Y234L, W235G, M238S, D267H, K289Y, Y295W, A297S, D326A, W327L, L333K
heavy 2: B1 heavy 2 with S238D, E269D, D325K, K329M, E333V
light: B1 light
B7: H240-Kn032/H240-Hl032/L73-k0 (antibody, human IgG1, kappa)
heavy 1: QDQLVQSGAEVKKPGASVKVSCKASGFNIKDTYIQWVRQAPGQGLEWMGRIDPLRKQTKYREKFEGRVTITADTSTNTAYMELSSLRSEDTAVYYCVRSGREFDYWGQGTLVTVSSASTKGPSVFPLAPSSKSTSGGTAALGCLVKDYFPEPVTVSWNSGALTSGVHTFPAVLQSSGLYSLSSVVTVPSSSLGTQTYICNVNHKPSNTKVDKKVEPKSCDKTHTCPPCPAPELLGGPDVFLFPPKPKDTLMISRTPEVTCVVVDVSHEDPEVKFNWYVDGVEVHNAKTKPREEQYNSTYRVVSVLTVLHQDWLNGKEYKCKVSNKALPLPEEKTISKAKGQPREPQVCTLPPSRDELTKNQVSLWCLVKGFYPSDIAVEWESNGQPENNYKTTPPVLDSDGSFFLYSKLTVDKSRWQQGNVFSCSVMHEALHNHYTQKSLSLSP
heavy 2: B7 heavy 1 with C348Y, D355C, W365S, L367A, Y406V
light: B1 light
notes: S239D/A330L/I332E in both H chains

Biological target: T7, FcgRIa (human, UniProt P12314 16-292)
T7 construct: extracellular domain; Soluble extracellular domain expressed in FreeStyle293 cells; also called FcγRIa; FcγRI; not shown: His tag attached to the C terminus
Test: SPR (Biacore); KD of H240-Kn120/H240-Hl068/L73-k0 divided by KD of the sample
Protocol: (§1) Analysis of interaction between objective antibody and the FcγR was carried out using Biacore T100 (GE Healthcare), Biacore T200, Biacore A100, and Biacore 4000. HBS-EP+ (GE Healthcare) was used as the running buffer, and the measurement temperature was set to 25° C. Chips produced by immobilizing the antigen peptide by the amine coupling method to a Series S sensor Chip CM5 (GE Healthcare), chips produced by allowing preliminarily biotinylated antigen peptides to interact with and immobilize onto a Series S Sensor Chip SA (certified) (GE Healthcare), chips produced by immobilizing Protein L (ACTIGEN, BioVision) to Series S Sencor Chip CM5 (GE Healthcare), or chips produced by immobilizing Protein A/G (Thermo Scientific) to Series S Sencor Chip CM5 (GE Healthcare) were used. Antibodies of interest were captured onto these chips, and allowed to interact to each FcγR diluted with running buffer. To regenerate and repeatedly use the chip, the antibodies captured onto the chip were washed off by reacting 10 mM glycine-HCl, pH 1.5.

T7 sequence (P12314 16-292): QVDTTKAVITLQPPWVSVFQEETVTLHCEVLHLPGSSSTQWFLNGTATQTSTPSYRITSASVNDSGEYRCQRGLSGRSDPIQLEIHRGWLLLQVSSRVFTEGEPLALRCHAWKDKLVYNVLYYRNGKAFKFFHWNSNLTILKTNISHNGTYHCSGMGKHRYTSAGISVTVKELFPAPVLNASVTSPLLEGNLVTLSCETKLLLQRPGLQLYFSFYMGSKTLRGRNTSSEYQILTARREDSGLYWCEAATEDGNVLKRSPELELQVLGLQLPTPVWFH

Question: How did the “relative KD” value turn out when B1 was run?
Answer: 0.4

Biological target: T1, FcgRIIaR
Test: as above
Protocol: as §1

Question: B1 was tested. Which “relative KD” value did it give?
Answer: 1.1

Biological target: T2, FcgRIIb
Test: as above
Protocol: as §1

Question: B1 was tested. Which “relative KD” value did it give?
Answer: 1

Biological target: T8, FcgRIIIaV (human, UniProt P08637 17-208)
T8 construct: extracellular domain; Allotype V158; also called FcγRIIIa V; not shown: His tag attached to the C terminus
Test: as above
Protocol: as §1
T8 sequence (P08637 17-208 F176V limits assumed): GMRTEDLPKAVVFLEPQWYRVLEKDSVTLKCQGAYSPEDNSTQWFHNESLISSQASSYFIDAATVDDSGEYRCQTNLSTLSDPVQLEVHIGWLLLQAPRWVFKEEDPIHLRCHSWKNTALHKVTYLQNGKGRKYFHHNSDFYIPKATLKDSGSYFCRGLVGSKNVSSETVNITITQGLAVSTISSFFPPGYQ

Question: How did the “relative KD” value turn out when B1 was run?
Answer: 1.1

Biological target: T3, FcgRIIaH
Test: as above
Protocol: as §1

Question: How did the “relative KD” value turn out when B1 was run?
Answer: 1.6

Biological target: T4, FcgRIIaR
Test: SPR (Biacore); KD of H240-Kn033/H240-Hl033/L73-k0 divided by KD of the variant
Protocol: (§2) Next, the amino acid at position 330 was examined. The A330M alteration has been introduced into H240-Hl076 of H240-Kn125/H240-Hl076/L73-k0. […] L73-k0 was used as the common antibody L chain. Binding of the produced variants to FcgRIa, FcgRIIaR, FcgRIIaH, FcgRIIb, FcgRIIIaF, and FcgRIIIaV was measured according to the method of Reference Example 8.
as §1

Question: For B2, which “fold 2aR” value is on record?
Answer: 1.5 fold

Question: Which “fold 2aR” value does the source give for B3 here?
Answer: 1 fold

Question: For B4, which “fold 2aR” value is on record?
Answer: 25.5 fold

Question: With B5 as the binder, how does the “fold 2aR” value read?
Answer: 1.2 fold

Question: With B6 as the binder, how does the “fold 2aR” value read?
Answer: 1.2 fold

Question: For B7, which “fold 2aR” value is on record?
Answer: 2.2 fold

Biological target: T5, FcgRIIb
Test: as above
Protocol: as §2, §1

Question: How did the “fold 2b” value turn out when B2 was run?
Answer: 1.3 fold

Question: Which “fold 2b” value does the source give for B3 here?
Answer: 1 fold

Question: How did the “fold 2b” value turn out when B4 was run?
Answer: 8.7 fold

Question: With B5 as the binder, how does the “fold 2b” value read?
Answer: 2.1 fold

Question: Which “fold 2b” value does the source give for B6 here?
Answer: 2.5 fold

Question: How did the “fold 2b” value turn out when B7 was run?
Answer: 5.3 fold

Biological target: T9, FcgRIIIaV (human, UniProt P08637 17-208)
T9 construct: extracellular domain; Polymorphic site after J. Clin. Invest; also called FcγRIIIa V; 3aV; not shown: His tag at the C terminus
Test: as above
Protocol: as §2, §1
T9 sequence (P08637 17-208 F176V limits assumed): as above

Question: How did the “fold 3aV” value turn out when B2 was run?
Answer: 7 fold

Question: B3 was tested. Which “fold 3aV” value did it give?
Answer: 1 fold

Question: With B4 as the binder, how does the “fold 3aV” value read?
Answer: 7.1 fold

Question: Which “fold 3aV” value does the source give for B5 here?
Answer: 11.4 fold

Question: Which “fold 3aV” value does the source give for B6 here?
Answer: 6.5 fold

Question: How did the “fold 3aV” value turn out when B7 was run?
Answer: 15.5 fold

Biological target: T6, FcgRIIaH
Test: as above
Protocol: as §2, §1

Question: Which “fold 2aH” value does the source give for B2 here?
Answer: 0.7 fold

Question: With B3 as the binder, how does the “fold 2aH” value read?
Answer: 1 fold

Question: B4 was tested. Which “fold 2aH” value did it give?
Answer: 11.3 fold

Question: With B5 as the binder, how does the “fold 2aH” value read?
Answer: 1.4 fold

Question: B6 was tested. Which “fold 2aH” value did it give?
Answer: 0.7 fold

Question: B7 was tested. Which “fold 2aH” value did it give?
Answer: 0.8 fold

Biological target: T10, FcgRIIIaF (human, UniProt P08637 17-208)
T10 construct: extracellular domain; Polymorphic site after J. Clin. Invest; also called FcγRIIIa F; 3aF; not shown: His tag at the C terminus
Test: as above
Protocol: as §2, §1

T10 sequence (P08637 17-208): as the sequence (P08637 17-208 F176V limits assumed) above, with V160F counted along it

Question: With B2 as the binder, how does the “fold 3aF” value read?
Answer: 3.7 fold

Question: How did the “fold 3aF” value turn out when B3 was run?
Answer: 1 fold

Question: Which “fold 3aF” value does the source give for B4 here?
Answer: 13.8 fold

Question: B5 was tested. Which “fold 3aF” value did it give?
Answer: 24.2 fold

Question: With B6 as the binder, how does the “fold 3aF” value read?
Answer: 20.7 fold

Question: B7 was tested. Which “fold 3aF” value did it give?
Answer: 31.9 fold
